Laboratory results from paper PMC8757827, “A Novel Regulation of K-antigen Capsule Synthesis in Porphyromonas gingivalis Is Driven by the Response Regulator PG0720-Directed Antisense RNA”.

Columns and labels:
[1] = molecular target: T1, PG0720 response regulator (Porphyromonas gingivalis W83) (UniProt Q7MWB1); test: EMSA; settings: 10 mM HEPES pH 7.8, 50 mM KCl, 5 mM MgCl2, 1 mM DTT, 1 mM EDTA, 1 ug poly(dI-dC), 1 ug BSA, 10% glycerol, 20 mM acetyl phosphate, room temperature 30 min …
T1 sequence: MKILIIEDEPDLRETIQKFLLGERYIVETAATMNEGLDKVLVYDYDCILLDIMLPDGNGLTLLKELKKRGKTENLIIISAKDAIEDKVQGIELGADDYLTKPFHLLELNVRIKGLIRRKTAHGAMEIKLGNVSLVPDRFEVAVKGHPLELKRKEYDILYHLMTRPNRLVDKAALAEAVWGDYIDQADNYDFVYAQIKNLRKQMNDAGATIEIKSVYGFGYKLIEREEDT

[2] = molecular target: T1, PG0720 response regulator (Porphyromonas gingivalis W83); test: DNase I footprinting; settings: 10 mM HEPES pH 7.8, 50 mM KCl, 5 mM MgCl2, 1 mM DTT, 1 mM EDTA, 1 ug poly(dI-dC), 1 ug BSA, 10% glycerol, 20 mM acetyl phosphate, room temperature 30 min …
[3] = molecular target: T2, PG0720 response regulator (Porphyromonas gingivalis W83, UniProt Q7MWB1 1-229); test: EMSA; 20 mM acetyl phosphate; 5 mM Mg2+; up to 140 pmol protein, 3 fmol DNA; 10 mM HEPES pH 7.8, 50 mM KCl, 5 mM MgCl2, 1 mM DTT, 1 mM EDTA, 1 ug poly(dI-dC), 1 ug BSA, 10% glycerol, 20 mM acetyl phosphate, room temperature 30 min, 10 ul (50 ul for footprinting); settings: protein: recombinant; tags: none (N-His-SUMO removed by SUMO Express protease); chain copies: 2; label: 5' biotin; blunt
T2 sequence: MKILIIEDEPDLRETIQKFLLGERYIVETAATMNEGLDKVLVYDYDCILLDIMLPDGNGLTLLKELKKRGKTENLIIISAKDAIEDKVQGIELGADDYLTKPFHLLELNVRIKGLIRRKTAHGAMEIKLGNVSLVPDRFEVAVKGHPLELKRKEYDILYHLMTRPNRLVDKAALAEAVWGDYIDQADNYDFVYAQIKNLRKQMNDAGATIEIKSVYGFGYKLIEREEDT

With “TGTCAGGGCGATCGCGTTTGAAAATTTTTAGTCTCTTTCCTCTATGATTTGAATCTCTGACATATGGATTCGCACTTGTTTGATAATTGAATGTAGCAATCATGAGATCTATAAGTGTGTAACGGTTCAAATGCGATTGTCCTGAATCATTCCA (double strand) [asSuGR promoter 154-bp]” the binding [1] was “binds”.

For “TGTCAGGGCGATCGCGTTTGAAAATTTTTAGTCTCTTTCCTCTATGATTTGAATCTCTGACATATGG (double strand) [asSuGR promoter 67-bp]”, the binding [1] was “binds”.

For “CAAACAAGTGCGAATCCATATGTCAGAGATTCAAATCATAGAGGAAAGAGACTAAAAATTTTCAAACGCGATCGCCCTGACAGGCTACCCCCGGGGT (double strand) [asSuGR promoter 97-bp footprint probe]”, the binding [2] was “binds”.

“ACACATCACAACAATATCTTCAATAACATACCCCACATCCGCCCGTCTTCACTACGATCTAAATAAAATTTCCCCAATGACAAAACCGCCTTATTTTAAAAATTACACATAACAGAAAAAAGAGTGATTCTCATTATACTTTCTTTGACAATCAAATCCTTTCAACGATGATTTTTGAGACCCTAATAGAGCGCAAAGGTAATTAATTATCGTCTATATTCCTAAATCCCAGTGGAATGATTCAGGAC (double strand) [PG0106 upstream promoter 248-bp]” was tested, and the binding [1] was “no binding”.

B1: 77-bp region (77bpIR2) (dsDNA)
DNA 1: ATTCGCACTTGTTTGATAATTGAATGTAGCAATCATGAGATCTATAAGTGTGTAACGGTTCAAATGCGATTGTCCTG
DNA 2: CAGGACAATCGCATTTGAACCGTTACACACTTATAGATCTCATGATTGCTACATTCAATTATCAAACAAGTGCGAAT
B1: no binding [3].
